What was measured:
Details in all cases: FMN input: 0 or 200 uM; Eterna round: R93 (includes R88 designs)
MS2 coat protein [1] = assay: apparent KD of MS2 coat protein, switch ON state; designed switch direction (-1 OFF switch, 1 ON switch): 1; higher = weaker reporter binding
Method in brief: (§1)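 Apparent KD was obtained for each design as the median of normalised binding-curve fits over its clusters. RNA switches transcribed on-chip from Illumina sequencing clusters were titrated with SNAP-549-labelled MS2 coat protein (twofold steps, 0.7 or 1.5 nM to 3 µM) in 100 mM Tris-HCl pH 7.5, 80 mM KCl, 4 mM MgCl2, without or with constant ligand.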

MS2 coat protein [2] = assay: apparent KD of MS2 coat protein, switch OFF state (with FMN for OFF switches, without FMN for ON switches); designed switch direction (-1 OFF switch, 1 ON switch): 1; higher = weaker reporter binding
Method in brief: as §1

MS2 coat protein [3] = assay: apparent KD of MS2 coat protein, switch ON state; designed switch direction (-1 OFF switch, 1 ON switch): -1; higher = weaker reporter binding
Method in brief: as §1

MS2 coat protein [4] = assay: apparent KD of MS2 coat protein, switch OFF state (with FMN for OFF switches, without FMN for ON switches); designed switch direction (-1 OFF switch, 1 ON switch): -1; higher = weaker reporter binding
Method in brief: as §1

| Sequence | apparent KD of MS2 coat protein (MS2 coat protein [1]) | apparent KD of MS2 coat protein (MS2 coat protein [2]) | apparent KD of MS2 coat protein (MS2 coat protein [3]) | apparent KD of MS2 coat protein (MS2 coat protein [4]) |
| --- | --- | --- | --- | --- |
| AACAAUCUAUCUGAGGAUAUCAUGAAAAAGACAUGAGGAUCACCCAUGUACCAGGAAACUGGUUAUGAGAAGGCAGAUAGAUUGA [SS2: 1116] | 9.32 nM | 14.4 nM | – | – |
| GGAAAUAAAAGAGAGGAUAUCCAAAGGAAAACAUGAGGAUCACCCAUGUAAAAGGAAGGAAAGUGGGAGAAGGCUCAAAAUAAGG [salish99-ss2-008] | 29.6 nM | 49.9 nM | – | – |
| GGCUGCAAUUAUGAGGAUAUGUUUGGAUGAACAUGAGGAUCACCCAUGUGGCGAUAGCCGUCUAUGCAGAAGGUGUAGUGGCGGC [Ertion] | 25.9 nM | 59.1 nM | – | – |
| GACCGACAUGAGGAUCACCCAUGUCGGAAAAGGCAAGGAUAUGGGCGGUACCAAUUUCGGUCAGAAGGUGCAAAAG [Aatisri] | 12.4 nM | 14.6 nM | – | – |
| GAAAAACAUGAGGAUCACCCAUGUGAUAACAUGGGAGGAUAUACGAGGACGAUAGUCAAGGUAGAAGGCCUAAAAG [Garnet 60] | 132 nM | 24.6 nM | – | – |
| CAUCAUGCGCCUAAGGAUAUGUCUCACAAGACAUGAGGAUCACCCAUGUAGAAUAAAUAAAUGAUGCAGAAGGUGGAGUGCAUGA [Inares] | 50.6 nM | 785 nM | – | – |
| CGGAGACAUGAGGAUCACCCAUGUGAGAAGAGGCGAGGAUAUCGAAAGAAAGAAGAGAAACGAGAAGGCGCGAGUG [salish99-SS1-074] | 21.9 nM | 32.9 nM | – | – |
| CAUAGACAUGAGGAUCACCCAUGUAGAAUUAUGGGAGGAUAUACAAAGACGAGAGUCAGAGUAGAAGGCCUAGGAU [salish99-ss1-162] | 24.1 nM | 35.6 nM | – | – |
| GUGGCCCAGGCACAGGAUAUGUUUCUCGUAACAUGAGGAUCACCCAUGUGCCUAUGAGAUUUAAUGCAGAAGGGUGCACGCCACG [Atiinbe] | 16.4 nM | 342 nM | – | – |
| UUUAAUUAUACGAAGGAUAUCGGUAAUUAGACAUGAGGAUCACCCAUGUUAUAUGGUUAAAUAUUCGAGAAGGUCGCGGGUGAAC [JR_SS002_Sub507] | 47.8 nM | 33.6 nM | – | – |
| GGCAAACAUGAGGAUCACCCAUGUCAGUGCUAUCAAGGAUAUGGGAUGACGGAAGGUCGGCCAGAAGGUGAGAAAG [Quededma] | 233 nM | 406 nM | – | – |
| UGGAGACAUGAGGAUCACCCAUGUGAGAAGAGGCGAGGAUAUCGAAAGAAAGAAGAGAAACGAGAAGGCGCGAGGG [salish99-SS1-043] | 49.7 nM | 52.1 nM | – | – |
| UGGAGACAUGAGGAUCACCCAUGUGAGAAGAGGCGAGGAUAUCGAAAGAAAGAAGAGAAACGAGAAGGCGCGAGUA [salish99-SS1-038] | 32.1 nM | 39.3 nM | – | – |
| AUUACAUCUAGUUAGGAUAUCAGAUGUAAGACAUGAGGAUCACCCAUGUCCUAAGAAUAGGUAACUGAGAAGGAACAGGGAGUAU [JR_SS002_Sub418] | 23.4 nM | 26.8 nM | – | – |
| UACACGCGGGCGCAGGAUAUGUCGCUGGUGACAUGAGGAUCACCCAUGUAUACCAUUGCGGUUGAGCAGAAGGGUGAGAAGCGUG [Raanlaza] | 20.4 nM | 56.3 nM | – | – |
| AUAUGAGCUAUGGAGGAUAUCCAUAACAAGACAUGAGGAUCACCCAUGUAAGAAAGAAAAGAAUGGGAGAAGGCCAUAGCUCAAU [SS 2 M46] | 37.9 nM | 63.7 nM | – | – |
| UAAAAACAUGAGGAUCACCCAUGUAGAAAUAUGGGAGGAUAUACAAAGACGAAAGUCAAAGUAGAAGGCCUGAAAU [Mat - Same State 1 - Eli mod - 85] | 21.5 nM | 88.7 nM | – | – |
| GUGUAUAGCCUCGAGGAUAUCCUGUAAUGCACAUGAGGAUCACCCAUGUAUGAGCGAGUUUUUUGGGAGAAGGCGAGUUAUCGGU [JR_SS002_Sub1709] | 12.9 nM | 24.2 nM | – | – |
| AGAAAUAAAGCAGAGGAUAUCCAAAAGAAAACAUGAGGAUCACCCAUGUAAAAGAAAAUAAAAUGGGAGAAGGCUGCAAAUAAAG | 18.5 nM | 23.9 nM | – | – |
| CUUAGGAAGAGAGAGGAUAUCCAAAGGAAAACAUGAGGAUCACCCAUGUAAAAGGUAGGAAAUUGGGAGAAGGCUCAAGAGAGAG [salish99-ss2-080] | 26 nM | 31.8 nM | – | – |
| AUAAAACAUGAGGAUCACCCAUGUAAAAAUAUGGGAGGAUAUGCGAAAUAAAAUAAAUAAGCAGAAGGCCUAAAAA [SS! MT 19] | 11.9 nM | 174 nM | – | – |
| AAUAUAUUAAGUGAGGAUAUCGAGGAAAAAACAUGAGGAUCACCCAUGUGGGAAACAUGGUAGGGUGAGAAGGUACUUAAUAUAU [Samwise Clockwise 23 - Jieux - Same State 2] | 218 nM | 220 nM | – | – |

| Sequence | apparent KD of MS2 coat protein (MS2 coat protein [1]) | apparent KD of MS2 coat protein (MS2 coat protein [2]) | apparent KD of MS2 coat protein (MS2 coat protein [3]) | apparent KD of MS2 coat protein (MS2 coat protein [4]) |
| --- | --- | --- | --- | --- |
| AAACCACAUGAGGAUCACCCAUGUAAAAUAAUGGGAGGAUAUACUAGAAGAAACAAAAUAGUAGAAGGCUCAAAAA [75%, Ex sub1, 34] | 28.2 nM | 97.3 nM | – | – |
| AAGAAUGUUUACGAGGAUAUGUUCCGCAGAACAUGAGGAUCACCCAUGUGAACAAGAAAGGCGACGCAGAAGGCGUGAGCAAAGA [Laatreve] | 45.7 nM | 324 nM | – | – |
| AAUAAUUAUACGAAGGAUAUCGGUAAUUAGACAUGAGGAUCACCCAUGUAAUAUGGUUAAAUAAUCGAGAAGGUCGAGGGUGAAA [JR_SS002_Sub503] | 55.3 nM | 42.2 nM | – | – |
| GAAAGGGCAGGAUAUGCAGAGAGAAAAAAAAAAAAAAAAAAACAUGAGGAUCACCCAUGUAGAAGGGCCGAAAG [salish99-ex2-03] | – | – | 34.7 nM | 48.1 nM |
| AGCUAGGUAGGAUAUACGUAAAUGUCGAAAGACGUAUUGGGACAUGAGGAUCACCCAUGUAGAAGGAUCUAGCA [it's a mod mod mod world 3] | – | – | 38.8 nM | 178 nM |
| AAAAUGUCAGGAUAUGCGAAGGCAUCUGACAGAUGAGGAUUGCAGAAGGGACAUGAGGAUCACCCAUGUAAAAA | – | – | 66.7 nM | 41.7 nM |
| AACAGUACAGGAUAUACAUGAGGAUCACCCAUGUGAGAAUUUAGCAGCGUAACACACAGUAGAAGGGUAAUGGA [Ruby 21] | – | – | 45.4 nM | 39.3 nM |
| AAAUAGGCAGGAUAUACAUGAAAAUUAAAAAAAAAAAAAAAACAUGAGGAUCACCCAUGUAGAAGGGUCAAAAA [Exclusion 2 - Omei 2] | – | – | 74.2 nM | 80.3 nM |
| AGUUGGCGAGGAUAUACAUGAGGAUCACCCAUGUGAGAGUAAGAAGUGAGAAAGAGAAGUAGAAGGCGCUAACA [Ruby 54] | – | – | 48.4 nM | 284 nM |
| AUAGUACAUGAGGAUCACCCAUGUCAGGAUAUUCGAAAUGAAAAAAAAAAAAAAUGAAGGAGAAGGGACUAUAA [EX1 Malc#11] | – | – | 74.7 nM | 72 nM |
| AAAAAGUGAGGAUAUGUCAAAAGUCACAAAAGUGACAAAAGACAGAAGGCACAUGAGGAUCACCCAUGUGAGGG [Mod of Eli - Late G + early G segment 4] | – | – | 110 nM | 103 nM |
| GGAAAACAUGAGGAUCACCCAUGUAAGGAUAUGCAAAAAAAAAAAAGGAUAUAGAAGGGCAGAAGGUACAAAGG [salish99-ex1-30] | – | – | 23.3 nM | 36.1 nM |
| UAGAACCUAGGAUAUACUUGGGUCACUAAUUUACUGAUAUAACAUGAGGAUCACCCAUGUAGAAGGAGGAGUAA [JR_Exc002_Sub203] | – | – | 45.2 nM | 26.7 nM |
| CUCAUGUGAGGAUAUCAGUAGUAAAAAAAUAAAAUUACUACUGAGAAGGCACAUGAGGAUCACCCAUGUGUCUU [EX4 331: Super Stable 31] | – | – | 45.8 nM | 27.2 nM |
| AAAAAACAUGAGGAUCACCCAUGUCAGGAUAUCAUAAAAAAAAAAAAAAAAAAAAAAGUGAGAAGGGACAAAAA [exclusion1-cac1] | – | – | 42.9 nM | 32.7 nM |
| AGAAAGUCAGGAUAUCAGAAACUAGUCGAAACGACUAGAAAUGAGAAGGGACAUGAGGAUCACCCAUGUAAGAA [Ex4 sub 2] | – | – | 46.3 nM | 43.1 nM |
| GCUUGCCAAGGAUAUACAUGAGGAUCACCCAUGUGAGAGAAAAAAGUGAGAAAGAAAAGUAGAAGGUGGUGAGG [salish99-ex3-110] | – | – | 26.4 nM | 120 nM |
| GAAAAGUGAGGAUAUACAGAUAAAAAAACGAAAAAAAAUCUGUAGAAGGCACAUGAGGAUCACCCAUGUAAAAG [Mat - Exclusion 4 - Mayanna - D107] | – | – | 36 nM | 36.6 nM |
| AAAAAGUGAGGAUAUACAUGAGAAAAAAAAAUGUAAAAAAAACAUGAGGAUCACCCAUGUAGAAGGCACAAAAA [Ecxl-II] | – | – | 40.8 nM | 83.5 nM |
| AGGGAGUGAGGAUAUACGAAAAAAAAAGAAGGAAAAAAAGAGUAGAAGGCACAUGAGGAUCACCCAUGUAAGAA [milkweed 13] | – | – | 35.8 nM | 26 nM |
| GGAAAACAUGAGGAUCACCCAUGUAAGGAUAUGCUAAAAAAGGAAAAAAACCCACCAGGCAGAAGGUACUAAAG [Janelle Amethyst 18 Mod 3 - Jieux - Exclusion 1] | – | – | 22.7 nM | 53.2 nM |

Source: the supplement of paper PMC9170038
